From US20230061378A1 (SUZHOU ALPHAMAB, published 2023)

Assays:
pertussis toxin (PT) [1] = target: T1, pertussis toxin (PT) (Bordetella pertussis, UniProt P04977 35-269; P04978 28-226; P04979 29-227; P0A3R5 43-152; P04981 35-133); experiment: cell-based or functional assay
pertussis toxin (PT) [2] = target: T1, pertussis toxin (PT); experiment: BLI, antibody on AHC biosensor, PTpuri 6.25-100 nM in solution
pertussis toxin (PT) [3] = target: T1, pertussis toxin (PT); experiment: BLI in-tandem binning on PT-biotin; competitor (Ab1, bound first): 1B7
pertussis toxin (PT) [4] = target: T1, pertussis toxin (PT); experiment: BLI in-tandem binning on PT-biotin; competitor (Ab1, bound first): 11E6

B1: 1B7 (antibody, V domains shown)
VH: QVQLQQPGSELVRPGASVKLSCKASGYKFTSYWMHWVKQRPGQGLEWIGNIFPGSGSTNYDEKFNSKATLTVDTSSNTAYMQLSSLTSEDSAVYYCTRWLSGAYFDYWGQGTTLTVSS
VL: QIVLTQSPALMSASPGEKVTMTCSASSSVSFMYWYQQKPRSSPKPWIYLTSNLPSGVPARFSGSGSGTSYSLTISSMEAEDAATYYCQQWSSHPPTFGSGTKLEIK
Minimum neutralizing concentration (CHO-K1 cells with PT toxin) (pertussis toxin (PT) [1]): 1.6 µg/mL
Kd (pertussis toxin (PT) [2]): < 1 pM
koff (pertussis toxin (PT) [2]): < 1e-07 s⁻¹
kon (pertussis toxin (PT) [2]): 387000 M⁻¹ s⁻¹
Ab2 with Ab1/Ab2 without Ab1 (pertussis toxin (PT) [3]): 1.1%

B2: 11E6 (antibody, V domains shown)
VH: EVKVVESGGGLVQPGGSLRLSCTTSGFTFTDYYVSWVRQPPGKALEWLGFIRNKVNGYTTEFSSSVKGRFTISRDNSQSILYLQMNTLRVEDSATYYCARVSYYGRGWYFDYWGQGTTLTVSS
VL: DIVMTQSTSSLSASLGDRVTISCRASQDIDNYLSWFQQKPDGTVKLLIYYTSRLHSGVPSRFSGSGSGTDYSLTISSLDQEDIATYFCQQGNTFPWTFGGGTKLEIK
Minimum neutralizing concentration (CHO-K1 cells with PT toxin) (pertussis toxin (PT) [1]): 0.8 µg/mL
Kd (pertussis toxin (PT) [2]): < 1 pM
koff (pertussis toxin (PT) [2]): < 1e-07 s⁻¹
kon (pertussis toxin (PT) [2]): 311000 M⁻¹ s⁻¹
Ab2 with Ab1/Ab2 without Ab1 (pertussis toxin (PT) [4]): 0.2%
